In article PMC7951975:

Biological target: GraS (native), fused to the T18 fragment of adenylate cyclase (Staphylococcus aureus) (UniProt Q2G0D9)
UniProt Q2G0D9, sequence (Q2G0D9 whole entry, the tested form may be a part): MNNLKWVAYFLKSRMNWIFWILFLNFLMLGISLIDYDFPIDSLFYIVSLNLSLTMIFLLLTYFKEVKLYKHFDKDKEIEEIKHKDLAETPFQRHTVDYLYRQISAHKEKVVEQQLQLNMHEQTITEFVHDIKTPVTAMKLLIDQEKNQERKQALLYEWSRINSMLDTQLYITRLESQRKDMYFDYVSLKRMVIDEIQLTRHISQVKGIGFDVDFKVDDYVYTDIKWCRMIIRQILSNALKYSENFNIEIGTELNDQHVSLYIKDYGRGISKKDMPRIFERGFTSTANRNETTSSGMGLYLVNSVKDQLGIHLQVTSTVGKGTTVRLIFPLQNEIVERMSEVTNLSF

“EL peptide of VraG (wild type) (domain or fragment)” was tested. Which survival of the ΔEL vraG mutant of JE2 in a 2-hr. killing assay with 2.5 μg/ml LL-37 in the presence of ~300 ng exogenous EL peptide did it give?
The survival of the ΔEL vraG mutant of JE2 in a 2-hr. killing assay with 2.5 μg/ml LL-37 in the presence of ~300 ng exogenous EL peptide was 40%.
